Measurements from patent US20150056134A1 (MABVAX THERAPEUTICS, published 2015).

B1: 7E3 human anti-sLe^a monoclonal antibody (antibody, V domains shown)
VH: QVQLLESGGGVVQPGRSLRLSCAASGFTFSFYGMHWVRQAPGKGLEWVAAISYDGSNKYYADSVKGRFTISRDNSKNTLYLQMNSLRAEDTAVYYCAKRPNQFYCSDGRCYSIDYWGQGTLVTVSS
VL: not shown
notes: Human IgM/kappa, tested as hybridoma supernatant; also called EF41-7E3; EF41-7E3 (M)
B2: 9H3 human anti-sLe^a monoclonal antibody (antibody, IgG1, V domains shown)
VH: EVQLLESGGGLVQPGRSLRLSCAASGFTFDDYVMHWVRQAPGKGLEWVSSISWNSGSIGYADSVKGRFIISRDNAKNSLYLQMNSLRAEDTALYYCAKDRRIRGDSGFEGDYWGQGTLVTVSS
VL: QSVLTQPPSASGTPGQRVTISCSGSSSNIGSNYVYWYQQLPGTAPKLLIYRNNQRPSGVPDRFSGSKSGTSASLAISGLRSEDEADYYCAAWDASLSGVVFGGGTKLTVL
notes: Human IgG/lambda (IgG1), tested as hybridoma supernatant; also called EF41-9H3; EF41-9H3 (G)
B3: 5B1 human anti-sLe^a monoclonal antibody (antibody, V domains shown)
VH: QVQLVESGGGSVQPGRSLRLSCEASGFTFEAYAMHWVRQPPGKGLEWVSSINWNSGRIAYADSVKGRFTISRDNARNSLYLQMNSLRLEDTAFYYCAKDIRRFSTGGAEFEYWGQGTLVTVSS
VL: QSVLTQPPSASGTPGQRVTISCSGSSSNIGSNFVYWYQQLPGTAPKLLIYRNNQRPSGVPDRFSGSRSGTSASLAISGLRSEDEADYYCAAWDDSLGGHYVFGTGTKVTVL
notes: Human IgG1/lambda; The ADCC assay used recombinant r5B1 made in CHO cells from a full-length IgG1 vector; also called EF41-5B1; EF41-5B1(G)
B4: 5H11 human anti-sLe^a monoclonal antibody (antibody, IgG1, V domains shown)
VH: QVQLLESGGGLVQPGRSLRLSCAASGFTFDEYAMHWVRQAPGKGLEWVSSVSWNSGSIGYADSVKGRFTISRDNAKNSLYLQMNSLRAEDTALYYCAKDIRTYSTGGAEFASWGQGTLVTASS
VL: QSVLTQPPSASGTPGQRVTISCSGSSSNIGSNYVYWYQQVPGTAPKLLIYRNNQRPSGVPDRFSGSKSGTSASLAISGLRSEDEADYYCAAWDDSLSGHYVFGTGTKVTVL
notes: Human IgG/lambda (IgG1), tested as hybridoma supernatant; also called EF41-5H11; EF41-5H11(G)

These binders were tested against T1, Neutral Avidin (UniProt P02701 25-152) (assay: ELISA, hybridoma supernatant on NeutrAvidin-coated control wells without sLe^a).
T1 construct: Control coating without captured biotinylated sLe^a; also called NAV; Neutr-Avidin
T1 sequence (P02701 25-152 limits assumed): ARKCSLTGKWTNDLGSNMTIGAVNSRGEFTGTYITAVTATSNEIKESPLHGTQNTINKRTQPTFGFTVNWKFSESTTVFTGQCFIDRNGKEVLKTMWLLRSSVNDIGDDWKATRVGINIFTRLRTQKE

Binder	OD (490 nm)
B1	0.05 OD (490 nm)
B2	0.05 OD (490 nm)
B3	0.05 OD (490 nm)
B4	0.05 OD (490 nm)
